Assay [1] deals with T1, AIP-3 (S. aureus III native cyclic signaling peptide) (Staphylococcus aureus).
T1 construct: also called AIP3 wt; AIP-III
Briefly: competition ELISA on AP1-BSA. Background: An ELISA detects its analyte on a solid surface through an enzyme-linked reagent.

Assay [2] concerns the target AIP-1 (S. aureus I native cyclic signaling peptide) (Staphylococcus aureus). Briefly: competition ELISA on AP1-BSA.

B1: AP1-15B4 (antibody, V domains shown)
VH: EVHLVESGGDLVKPGGSLKLSCAASGFAFSDFAMSWVRQTPEKRLEWVAIIKSDDSYTYYPDSVRDRFTISRDNARNTLYLQMTSLRSEDTALYYCTKIYDAYFYAMDYWGQGTSVTVSS
VL: DIVRTQSPLSLSVSLGDQASISCRSSQSLLHSNGNTYLHWYLQKPGQSPKLLIYKVSNRFSGVPDRFSGSGSGTDFTLKISILEAEDLGIYFCSQSTHFPTFGGGTKLEIK
notes: also called mAb AP1-15B4; AP1 Sups 15B4
With B1, the Kd (as a rule, the constant that tells how readily two partners part at equilibrium) in assay [1] is around 1 µM.

B2: 3B1 (antibody, V domains shown)
VH: QVQLQESGPGLVKPSETLSLTCTVSGGSISSYYWSWIRQPPGKGLEWIGYIYYSGNTNSNPSLKSRVTISVDTSKNQFSLKLSSVTAADTAVYYCARTYYDSSGYYYRAFDIWGQGTMVTVSS
VL: DIQMTQSPSSLSASEGDRVTITCRASQGIRNDLGWYQQKPGKAPKRLIYAASSLQSGVPLRFSGSGSGTEFTLTISSLQPEDFATYYCLQYNSYPWTFGQGTKVEIKR
Molecule B2 registered a Kd in assay [2] of around 6 µM.

The record behind these values is US9394371 (Scripps Research, dated 2016).
